The text below walks through data of publication PMC10340229, “EpoR Activation Stimulates Erythroid Precursor Proliferation by Inducing Phosphorylation of Tyrosine-88 of the CDK-Inhibitor p27^Kip1” (Cells, 2023).

The target in assay [1] is T1, bacterially expressed recombinant p27 (full–length p27) (human, UniProt P46527 1-198).
T1 construct: p27^Kip1 (CDKN1B), human, full length; No tag is named for the full-length protein; also called purified p27; source: bacteria, purified by heat treatment (95 °C, ultracentrifugation)
Nature of the assay: pull-down; GST fusion proteins bound on glutathione Sepharose beads incubated for 2 h at 4 °C with purified bacterial p27, p27 mutants or p27 fragments; extensive washing; bound p27 detected by Western blot. To be noted: both partners purified.

Assay [2] addresses T2, GST–hIC EpoR (273–508aa), cytoplasmic domain of human EpoR (human, UniProt P19235 273-508).
T2 construct: also called GST–EpoR; source: E. coli BL21, purified on glutathione Sepharose beads
T2 sequence (looked up): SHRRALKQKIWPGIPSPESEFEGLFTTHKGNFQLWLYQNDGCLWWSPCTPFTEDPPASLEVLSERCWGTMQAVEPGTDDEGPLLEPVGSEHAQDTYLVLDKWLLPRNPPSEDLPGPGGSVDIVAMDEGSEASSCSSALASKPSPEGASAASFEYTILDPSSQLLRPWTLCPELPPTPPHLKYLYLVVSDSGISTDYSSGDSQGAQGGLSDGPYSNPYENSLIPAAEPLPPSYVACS
The assay is described as above. Conditions: both partners purified.

B1: GST–hIC EpoR N (273–433aa) (domain or fragment, human, UniProt P19235 273-433, looked up)
chain: SHRRALKQKIWPGIPSPESEFEGLFTTHKGNFQLWLYQNDGCLWWSPCTPFTEDPPASLEVLSERCWGTMQAVEPGTDDEGPLLEPVGSEHAQDTYLVLDKWLLPRNPPSEDLPGPGGSVDIVAMDEGSEASSCSSALASKPSPEGASAASFEYTILDPSS
notes: also called N–terminal truncated cytoplasmic domain of EpoR; source: E. coli BL21, purified on glutathione Sepharose beads
As for B1, the binding result in assay [1] is “binds”.

B2: p27 ΔSH3 (amino acids 94, 95, 96 PPK to GCA) (natural protein, human, UniProt P46527 1-198, looked up)
chain: MSNVRVSNGSPSLERMDARQAEHPKPSACRNLFGPVDHEELTRDLEKHCRDMEEASQRKWNFDFQNHKPLEGKYEWQEVEKGSLPEFYYRPPRGCAGACKVPAQESQDVSGSRPAAPLIGAPANSEDTHLVDPKTDPSDSQTGLAEQCAGIRKRPATDDSSTQNKRANRTEENVSDGSPNAGSVEQTPKKPGLRRRQT
notes: p27^Kip1 (CDKN1B), human, with point mutations in the proline-rich region; also called p27 ∆SH3; ΔSH3 mutant; source: bacteria, purified by heat treatment
In the case of B2, in assay [2], the binding result was “binds”.

B3: p27 CK– (R30A, L32A, F62A, F64A) (natural protein, human, UniProt P46527 1-198, looked up)
chain: MSNVRVSNGSPSLERMDARQAEHPKPSACANAFGPVDHEELTRDLEKHCRDMEEASQRKWNADAQNHKPLEGKYEWQEVEKGSLPEFYYRPPRPPKGACKVPAQESQDVSGSRPAAPLIGAPANSEDTHLVDPKTDPSDSQTGLAEQCAGIRKRPATDDSSTQNKRANRTEENVSDGSPNAGSVEQTPKKPGLRRRQT
notes: p27^Kip1 (CDKN1B), human, with four point mutations; source: bacteria, purified by heat treatment
For B3, in assay [2], the binding result is given as “binds”.
